# In US8076452 (dated 2011):
# Target: T1, streptavidin (UniProt P22629 37-163)
# T1 construct: also called peroxidase-labeled streptavidin; streptavidin-Sepharose
# Test: SPR (BiacoreX, NTA chip), fusion protein immobilised, streptavidin injected
# Method: The measurements of the dissociation constant were performed with a BiacoreX system and the sensor chip NTA of the company Biacore. The proteins generated during the expression described in Example 1 were investigated, i.e. FAB proteins, which had at the N terminus a peptide consisting of 15 amino acids as fusion partners and at the C terminus 6 histidines, which were needed for the immobilization on the sensor chip. The binding affinity of the proteins generated during the expression to streptavidin described in Example 1 was measured in the Biacore device according to manufacturer's instructions. The protein to be investigated is on the sensor chip, and a streptavidin solution having a defined concentration is sprayed in. The interaction (binding) between the two molecules is measured by the device and quantified as so-called resonance units (RU). For the measurement, the buffers specified by the manufacturer were used.
# T1 sequence (P22629 37-163 limits assumed): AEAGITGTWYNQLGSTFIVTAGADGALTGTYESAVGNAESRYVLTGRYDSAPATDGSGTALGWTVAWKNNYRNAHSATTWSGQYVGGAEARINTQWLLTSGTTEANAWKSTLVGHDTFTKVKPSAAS
RU at 500 nM streptavidin,RU at 2 µM streptavidin,Binder
62 RU,233 RU,FAB protein (FABP from bovine hearts) with N-terminal 15-amino-acid peptide motif 1 and C-terminal His-tag of 6 histidines (other) DLYDIDRNWVGHPQGFVGTWKLVDSKNFDDYMKSLGVGFATRQVGNMTKPTTIIEVNGDTVIIKTQSTFKNTEISFKLGVEFDETTADDRKVKSIVTLDGGKLVHVQKWNGQETSLVREMVDGKLILTLTHGTAVCTRTYEKQAHHHHHH
786 RU,946 RU,FAB protein (FABP from bovine hearts) with N-terminal 15-amino-acid peptide motif 3 and C-terminal His-tag of 6 histidines (other) DVEAWLDERVPLVETFVGTWKLVDSKNFDDYMKSLGVGFATRQVGNMTKPTTIIEVNGDTVIIKTQSTFKNTEISFKLGVEFDETTADDRKVKSIVTLDGGKLVHVQKWNGQETSLVREMVDGKLILTLTHGTAVCTRTYEKQAHHHHHH
478 RU,644 RU,FAB protein (FABP from bovine hearts) with N-terminal 15-amino-acid peptide motif 4 and C-terminal His-tag of 6 histidines (other) DVEAWIADPAVHFTTFVGTWKLVDSKNFDDYMKSLGVGFATRQVGNMTKPTTIIEVNGDTVIIKTQSTFKNTEISFKLGVEFDETTADDRKVKSIVTLDGGKLVHVQKWNGQETSLVREMVDGKLILTLTHGTAVCTRTYEKQAHHHHHH
